In general, stoichiometry N refers to a count of units in the complex or per binding partner.

The values that follow come from article PMC5394239 (Nature Communications, 2017).

This data set concerns the molecule itself. In words: cryo-EM structure.

B1: SARS-CoV S ectodomain, uncleaved, trimerization motif and His tag removed by thrombin (domain or fragment)
chain: not shown
As to B1, the “stoichiometry N” value amounted to 3.
